According to the DeepSol protein solubility set:

Assay: soluble on expression in E. coli; label from the status in PepcDB or PDB records

Row | Sequence | soluble on expression in E. coli
1 | MSLLEWDLSALFHDKEALQNFTQDQIQQSLNFKKNYENKLYTLNANEFLQALKDYENLNQALGKIMTYAYLLFAKNTQNGSFYAQYEEECKKIEENLLFFELEFCELAPEKSREFTTFCKDYDFYLSNLLQNKRYNLSKNEERIMLYLSNTGANAFSRLFDESMSALKIPFEGKKLSEEEILSKMYDENRKIRKKAAKKFSKVLQKNSRLLSFIINMIKTERKNISLLRGYENAEISRHISNQISQKSVDSLIASAQKHFNLVSQFYKRKKQILGYDELKDYDRYAPIGKEASFDFKTSKNIVLEAFQAFSPQFYDIAKNAFDQGWIDVYPQENKQGGAFSHSATSDAHPFVLLNHTNKRRDLFTLAHELGHTIHQKLSYNVSYLNQNTPLTTAETASVFAEMLVFDFIKDKLKKEELLSLYANKIEDIFATFYRQINFTCFERRLHAQENELSTEEINKIWMEESQKMFQDSVKLTKNYASWWSYIPHFIHSPFYCYAYAYAQLLVLALYGLYKSKKCENFKELYIKMLSLGGSVSPKELVGMFGFDIEDENFWEIGIKEIQKLINEFMELQSEGHHHHHH | soluble
2 | MSLLFYVAYLGFYIAPTKLVRNKIKSWLLNASEYDFTDIKEGIRLHLNESPFEPPQFIIDAVKMYLSKGNRYQHPDLLEKYRELAAEYSKVEPENIYPSVGADGSIRAIFYNLVEPGDTILTNYPSYSMYSVYSSVRGTKVIKVNLKEDNEWWKENTDDLLAQAEKVELVIIDDPNNPTGSPMLNGKKELIGQLAENTKGFVVIDEAYYEFGGYTVSPYIYDYPNVLVVRTLSKAFSLASYRLGYTIANEEIVKALMKSSTPFDIPLPSLIAGITALENPSYIKDVVNIVNRNREILYQGLKNLNLKVYKSITNFLLIKDNRNLQEMLMRHGIAIRKLYDNFYRITIGTEDQCKMVIDKLGEELENSNSEGHHHHHH | not soluble
3 | MSLLQEMTIKNFAIIESLSLTFQEGMTVLTGETGAGKSIIIDALGLLVGGRGSADFIRHGEERLELQGLFALAEDNLACRNALIENGIDASDDMVVLERSLFRSGKNSCRINGKLVTTVLLRQIGSKLIDIHSQHEHQELMNEEFHLSLLDRFASDKIKPALTKYQTNFKEYQTIEKEWQNWTKNERELAQRLDMLRFQQQEIENANLQAGEEDRLLEQKNILANFEKLNENLQGAYAAIQGEPGGLEFVGEAMRQMEAAASIHTDYKAVSEAISSSYYMLEDSMSQIRQSLDQLEFQPEELNQIESRLNDLNQLKRKYGKTIEDIIQYEQEISSEMEKLTDSESHVGHLETKLATLKAELTKQANTLTEIRKKAAVTLEKQIKQELNHLYMEKAIFSVRFEANKMELTDSGQDSVVFYMSTNPGEPLKPLAKIASGGELSRMMLALKTIFSRHQGITSIIFDEVDTGVSGRVGQAIAEKIYAVSVGSQVLCISHLPQVAAMANHHYYITKKVQNKRTTTSVTVLKGEEKVEEISRMIAGIEVTELTKQHAKEMIEQAEKVKQTYEGHHHHHH | soluble
4 | MSLLQVAPSAYRRHAARQRCPKLRSARSQRDEGLMAEIRRVWQANMQVYGVRKVWYQLQREGIAVARCTVERLMRRLGLQGVRRGKRVRTTIADGSQACSLDRVNRHFHADRPNQLWVSDFTYVSTWQGWLYVAFVIDVFARRIVGWRVSTTMSTDFVLDALEQALYDRRPAESLIHHSDRGSQYVSIRYTERLAEAGIEPSVGSRGDSYDNALAETINGLYKAELIHRRAPWKTRAAVELATLEWVAWYNHQRLLGSIGYIPPAQAEELYHRTHSETVPMNAVLEGHHHHHH | not soluble
5 | MSLLVLGIESSCDETGVALYDTERGLRAHCLHTQMAMHAEYGGVVPELASRDHIRRLVPLTEGCLAQAGASYGDIDAVAFTQGPGLGGALLAGSSYANALALALDKPVIPVHHLEGHLLSPLLAEEKPDFPFVALLVSGGHTQIMAVRGIGDYALLGESVDDAAGEAFDKTAKLLGLLYPGGAKLSELAESGRFEAFVFPRPMIHSDDLQMSFSGLKTAVLTAVEKVRAENGADDIPEQTRNDICRAFQDAVVDVLAAKVKKALLQTGFRTVVVAGGVGANRKLRETFGNMTVQIPTPKGKPKHPSEKVSVFFPPTAYCTDNGAMIAFAGAMHLGKGREVGAFNVRPRWPLSEIVREGHHHHHH | soluble
6 | MSLMAVNVNTNVAAMTAQRYLTGATNAQQTSMERLSSGFKINSAKDDAAGLQISNRLNVQSRGLDVAVRNANDGISIAQTAEGAMNETTNILQRMRDLSLQSANGSNSKSERVAIQEEITALNDELNRIAETTSFGGNKLLNGTFSTKSFQIGADNGEAVMLTLKDMRSDNRMMGGTSYVAAEGKDKDWKVQAGANDITFTLKDIDGNDQTITVNAKEGDDIEEVATYINGQTDMVKASVNEKGQLQIFAGNNKVTGDVAFSGGLAGALNMQAGTAETVDTIDVTSVGGAQQSVAVIDSALKYVDSHRAELGAFQNRFNHAISNLDNINENVNASKSRIKDTDFAKETTALTKSQILSQASSSVLAQAKQAPNAALSLLG | soluble
7 | MSLMPFHLAIPVHDLPAARRFYGEVFGLSEGRSAEHWVDFDFFGHQLVIHQHPQTDSQRHAGSNPVDGHDVPVPHFGVVLAWDDWHALAERLQQRGTRFVIEPYIRFKGQVGEQATLFLFDPCGNALEFKSFRDMGQLFAKLEHHHHHH | soluble
8 | MSLNAQLNDLGPIKAVIFDMDGLLLDTEGIYTEITQLIAERYGRTYDWTIKQNIIGRGAGDLARYVVQALDLPISAEEFLVMREPLMRERFPRAQAMPGAQELVRHLKEHRIPIAVGTSSSQMSFGEKTTRHGDWFALFDTIVTADDPEVTAAKPAPDIFLTAARRLGVAPAECLVFEDSPFGVTAARAAGMSVIAVPDPAMADSKFAHAHGIIRSLKGFQPAACGLPHLHWDEGHHHHHH | soluble
9 | MSLNDQIKIRKATKEDWEKIYQLYNSLSDEDLYLRFFHLYRITEEDAKKIASNEDHVTFLAEVDGKVVGEASLHKDGEFSLVVHRNYRTLGIGTLLVKTLIEEAKKSGLSTVKFYTLPENTPMIKIGRKLGFKMRFYEDEVYGEMRLTERELNVNLATFSAPEGHHHHHH | soluble
10 | MSLNDTVTVRISFAVNIATRVIAEVPLFSLTKPSHQELLQKIAEQSRSPFNYPDVGASLCEFPSGYEHHHHRVRLGRGQEVFDRAKEALGNWRQFDVGWVEAIPSDTSITVGNTIAIRVRIFGVWAMAFDRIVDVYGEQDGECRRFGFSVGTLTEHPEQGEERFSIEIDREDHVDYEVAAFFRPNTLAAKMAWPVLHRRFNRFRNQSAEAMQLACKLGPSSEGHHHHHH | not soluble
11 | MSLNEMEKRPEDTRVVVGMSGGVDSSVAALLLKEQGYDVIGIFMKNWDDTDENGFCTATEDYEDVIRVCNQIGIPYYAVNFEKQYYEKVFQYFLDEYKAGRTPNPDVLCNKEIKFKAFLEHALSLGADYLATGHYARVDRSGGKVRMLRGIDENKDQTYFLNQLTEDTLSKVMFPIGELQKSRVREIAKEAELATATKKDSTGICFIGERNFKTFLSQYLPAQPGDMMTMDGEVKGRHDGLMYYTIGQRHGLGIGGSGEPWFAVGKDLEKNILYVDQGFHNPLLYSDKITATNISWVRSDIMKGEEISCTAKFRYRQEDHKVTVRMTGEGEAEVIFDEQVRAVTPGQAVVFYDGEECLGGGTIDDVYKDGTKLWYVEGHHHHHH | soluble
12 | MSLNHPDYKLNLRSPGTPRGVSSVVGPSAVGASPGDKKSKNKSMRGKKKSIFETYMSKEDVSEGLKRGTLIQGVLRINPKKFHEAFIPSPDGDRDIFIDGVVARNRALNGDLVVVKLLPEDQWKAVKPESNDKEIEATYEADIPEEGCGHHPLQQSRKGWSGPDVIIEAQFDDSDSEDRHGNTSGLVDGVKKLSISTPDRGKEDSSTPVMKDENTPIPQDTRGLSEKSLQKSAKVVYILEKKHSRAATGILKLLADKNSDLFKKYALFSPSDHRVPRIYVPLKDCPQDFMTRPKDFANTLFICRIIDWKEDCNFALGQLAKSLGQAGEIEPETEGILTEYGVDFSDFSSEVLECLPQSLPWTIPPDEVGKRRDLRKDCIFTIDPSTARDLDDALACRRLTDGTFEVGVHIADVSYFVPEGSSLDKVAAERATSVYLVQKVVPMLPRLLCEELCSLNPMTDKLTFSVIWKLTPEGKILEEWFGRTIIRSCTKLSYDHAQSMIENPTEKIPEEELPPISPEHSVEEVHQAVLNLHSIAKQLRRQRFVDGALRLDQLKLAFTLDHETGLPQGCHIYEYRDSNKLVEEFMLLANMAVAHKIFRTFPEQALLRRHPPPQTKMLSDLVEFCDQMGLPMDVSSAGALNKSLTKTFGDDKYSLARKEVLTNMYSRPMQMALYFCSGMLQDQEQFRHYALNVPLYTHFTSPIRRFADVIVHRLLAAALGYSEQPDVEPDTLQKQADHCNDRRMASKRVQELSIGLFFAVLVKESGPLESEAMVMGVLNQAFDVLVLRFGVQKRIYCNALALRSYSFQKVGKKPELTLVWEPDDLEEEPTQQVITIFSLVDVVLQAEATALKYSAILKRPGLEKASEGHHHHHH | soluble
13 | MSLNIIERQKLTQSLKLSQMMKLSINILKMSVMDLNKFIEKEFSEDSGISVELNYSKKENFNGGKEAEMNYPTDEKNFFQILEEQLSYFKINKKIKEICIFIINNLDKKGYLELSKIEIKDILEVSNKELEEAFDIIHNLEPYGIGAYSLEECLKIQLKAKKIIEEKLSLFIDNYLYLLADKKYDLIKEKLNINDNILFSYIDIIKSLNPIPSRGYSVGKVRKIIPDVLVEIKKNEIFYEINRASIPQINVKDKIEDEGHHHHHH | not soluble
14 | MSLNIIRLLAESLPRISDGNENTDVWVNDMKFKMAYSFLNDDIDVIERELEQTVRSDYPLLSEAGLHLLQAGGKRIRPVFVLLSGMFGDYDINKIKYVAVTLEMIHMASLVHDDVIDDAELRRGKPTIKAKWDNRIAMYTGDYMLAGSLEMMTRINEPKAHRILSQTIVEVCLGEIEQIKDKYNMEQNLRTYLRRIKRKTALLIAVSCQLGAIASGADEKIHKALYWFGYYVGMSYQIIDDILDFTSTEEELGKPVGGDLLQGNVTLPVLYALKNPALKNQLKLINSETTQEQLEPIIEEIKKTDAIEASMAVSEMYLQKAFQKLNTLPRGRARSSLAAIAKYIGKREGHHHHHH | soluble
15 | MSLNKESLKEYLSSRYQGWSSFLNNVIFPIFGEDDFEDGFETELLESQPERRQLAEATGIRSIKQVGMMYVGVEPLQIFDVTVSDRVMMEHNRVNIQRLIRAVMDQFSCAFMLFHYEDDTRWDWRFTYCRKSGNKEESTDSKRYTFLLGPGQSCRTATDNFIALYDKRNSLEIKDIENAFNVEALSKEFFGKYKAQYEAFVNYMVDPTNGMRQHFIDTGFDHTGMAADKIRDREEKPIRDYVKKLLGRIVFLHFLQKKGWLGVPASKEWGEGDRDFMLNIFKNANERQKENFLDDILEDLFTEGLDRNRSDQGDLYDTKVEGFRNCRIPYLNGGLFERDILDKKPSHFPASYFNGLLTMLSQYNFTIDENDPNDAEVGVDPEMLGRIFENLLEDNKDKGAFYTPKEIVQYMCRESLIAYLQTDMREEDKECIRQFVTTHDASQLGELKEYIDQKLYDVKICDPAIGSGAFPMGLLRELFFCRSAIEPNIVENAANIKRHIIQNNIYGVDIERGAVDIARLRFWLSLIVDEKSPEALPNLDFKIMQGNSLLEQYKGVDLSTEGHHHHHH | soluble
16 | MSLNLIKYGLTTAVQADLTKENGQILGRIIGQHRDWYQVITTAGERSAQVTGKLAYEAASPAAFPAVGDWVCLSSSADNQAQIEAIAPRQSVLARGAVNRQDGQIIATNINTIFICMSLNADFNVRRLERYLTIAWDSGALPVIVLTKADLCTDLATKLRAVADVSVGVPTITCSVETGQGLDELQPYLTTGQTVAFVGSSGVGKSTLINRLLGQDILATKSIRTDDNKGRHTTTSRQLIPLPTGACVIDTPGMRELQIFMGDLNQTFAEIAALATQCKFNDCTHTSEPGCAVRAAVEVGTVTSERLQSYQKLQREMSYQGEGHHHHHH | soluble
17 | MSLNNPTPKIDQTNNIVIGQKINPDKMHRAKEFRRQMTPAEKILWQHLRGNRLNGLHFRRQQIIDGFIADFYCHAARLVIEVDGKIHELQAEYDAERDRVLLARGLRLLRVKNEEVVQEIDQVLMLISEVCCEETEGHHHHHH | soluble
